“Also recorded” adds a separate entry of the source.
Legend:
AGS cells = assay: Induction of apoptosis by Annexin V/7-AAD staining in gastric carcinoma cells; type: cell-based; details: 10 uM, 14 hours
Method: (§1) AGS cells (gastric carcinoma cell line) (American Type Culture Collection; ATCC) were seeded in a 12-well plate at a density of 1×10^5 cells/well, and then treated with 10 uM of aMTD/SD-fused SOCS3 for 14 hours. Cancer cell death was analyzed by Annexin V analysis. Annexin V/7-Aminoactinomycin D (7-AAD) staining was performed using flow cytometry according to the manufacturer's guidelines (BD Pharmingen, San Diego, Calif., USA). Briefly, cells were washed three times with ice-cold PBS. The cells were then resuspended in 100 μl of binding buffer and incubated with 1 μl of 7-AAD and 1 μl of annexin V-PE for 30 min in the dark at 37° C. Flow cytometric analysis was immediately performed using a guava easyCyte™ 8 Instrument (Merck Millipore, Darmstadt, Germany).

IL-6 = assay: LPS/IFN-γ-induced cytokine secretion in peritoneal macrophages (cytometric bead array), IL-6; type: cell-based, C3H/HeJ mice; details: 10 μM protein; IFN-γ and LPS
Method: (§2) Peritoneal macrophages were obtained from C3H/HeJ mice (Doo-Yeol Biotech Co. Ltd. Korea) Peritoneal macrophages were incubated with 10 μM SOCS3 recombinant proteins (1:HS3, 2:HM165S3, 3:HM165S3A and 4:HM165S3B, respectively) for 1 hr at 37° C. and then stimulated them with LPS (Lipopolysaccharide)(500 ng/ml) and/or IFN-γ (100 U/ml) without removing iCP-SOCS3 proteins for 3, 6, or 9 hrs. The culture media were collected, and the extracellular levels of cytokine (TNF-α, IL-6) were measured by a cytometric bead array (BD Pharmingen, San Diego, Calif., USA) according to the manufacturer's instructions.

[1] = tested on: Bcl-2, NF-κB (p-p65), cleaved caspase-3 in HepG2 cells; assay: Immunoblotting of apoptosis-related proteins; type: cell-based, human; details: 10 μM, 24 hr
Method: (§3) Cells were treated for 24 hr with 10 μM HS3B or HM165S3B proteins, lysed in RIPA lysis buffer containing proteinase inhibitor cocktail, incubated for 15 min at 4° C., and centrifuged at 13,000 rpm for 10 min at 4° C. Equal amounts of lysates were separated on 15% SDS-PAGE gels and transferred to a nitrocellulose membrane. The membranes were blocked using 5% skim milk or 5% Albumin in TBST and incubated with the following antibodies: anti-Bcl-2 (Santa Cruz biotechnology), anti-Cleaved Caspase 3 (Cell Signaling Technology), anti-phospho-p65 and anti-p65 (Cell Signaling Technology), then HRP conjugated anti-mouse or anti-rabbit secondary antibody. The expression of each protein was determined by immunoblotting with indicated antibodies. An antibody against β-actin was used as a loading control.

[2] = tested on: Bcl-2, NF-κB (p-p65), cleaved caspase-3 in Hep3B cells; assay: Immunoblotting of apoptosis-related proteins; type: cell-based, human; details: 10 μM, 24 hr
Method: as §3

TNF-α = assay: LPS/IFN-γ-induced cytokine secretion in peritoneal macrophages (cytometric bead array), TNF-α; type: cell-based, C3H/HeJ mice; details: 10 μM protein; IFN-γ and LPS
Method: as §2

PANC-1 cells = assay: Apoptotic cell analysis by TUNEL assay in pancreatic carcinoma cells; type: cell-based; details: PANC-1, 10 uM
Method: PANC-1 cells (pancreatic carcinoma cell line) were seeded in a 16-well chamber slide at a density of 5×10^3 cells/well, and then treated with 10 uM of aMTD/SD-fused SOCS3 for 24 hours. Apoptotic cells were analyzed using terminal dUTP nick-end labeling (TUNEL) assay with In Situ Cell Death Detection kit TMR red (Roche, 4056 Basel, Switzerland). Cells were treated with either 10 μM SOCS3 recombinant protein or buffer alone for 16 hrs with 2% fetal bovine serum (Hyclone, Logan, Utah, USA). Treated cells were washed with cold PBS two times, fixed in 4% paraformaldehyde (PFA, Junsei, Tokyo, Japan) for 1 hr at room temperature, and incubated in 0.1% Triton X-100 for 2 min on the ice. Cells were washed with cold PBS twice, and treated TUNEL reaction mixture for 1 hr at 37° C. in dark, washed cold PBS three times and observed by fluorescence microscopy (Nikon, Tokyo, Japan).

HepG2 cells [3] = assay: Induction of apoptosis, Annexin V/7-AAD staining; type: cell-based, human; details: for induction of apoptosis (Annexin V), HepG2, dose dependence: example 20-1
Method: as §1
Annexin V/7-Aminoactinomycin D (7-AAD) staining was performed using flow cytometry according to the manufacturer's guidelines (BD Pharmingen, San Diego, Calif., USA). Briefly, 1×10^6 cells were washed three times with ice-cold PBS. The cells were then resuspended in 100 μl of binding buffer and incubated with 1 μl of 7-AAD and 1 μl of […] for 30 min in the dark at 4° C. Flow cytometric analysis was immediately performed using a guava easyCyte™ 8 Instrument (Merck Millipore, Darmstadt, Germany). In this regard, Cisplatin® (IC50: 30 μM) was used as a reference drug.
The effect of inducing apoptosis of Chang liver cells was measured in the same manner as in Example 11-2, except that as target cell lines, normal Chang liver cells and hepatocellular carcinoma cell lines, Hep3B, HepG2, Huh7, and SK-HEP-1 were used, and as a reference drug, 5-FU® (IC50: 40 μM) was used.

normal cells = assay: Inhibition of cell cycle progression (PI staining, flow cytometry); type: cell-based; details: 10 uM, 8 hrs
Method: HCCs and normal cells were treated with 10 uM protein (Non-CP-SOCS3 (HS3B) and iCP-SOSC3 (HM165S3B)) for 8 hrs. After the treatment, cells were washed twice with cold PBS and re-suspended in 1 ml cold PBS, fixed in cold 70% ethanol, washed with cold PBS twice and re-suspended in PI master mix (PI 10 ug/ml (SIGMA, USA), 50 ug/ml RNase A (Invitrogen, USA) in staining buffer) at a final cell density of 2×10^5 cell/ml. The cell mixtures were incubated 30 min in the dark at 4° C. Flow cytometric analysis was immediately performed using a guava easyCyte™ 8 Instrument (Merck Millipore, Darmstadt, Germany).

HepG2 cells [4] = assay: Cell-permeability of FITC-labeled SOCS3 recombinant proteins in hepatocellular carcinoma cells (flow cytometry); type: cell-based, human; details: 10 μM FITC-labeled protein, 1 hr, 37° C.
Method: HepG2 cells (ATCC, Manassas, Va., USA) were seeded in a 12 well plate, grown to 90% confluence. Cells were treated with 10 μM FITC-labeled iCP-SOCS3 recombinant proteins and cultivated for 1 hr at 37° C.
After cultivation, the cells were treated with proteinase K (10 ug/mL, SIGMA, USA) and washed three times with ice-cold PBS (Phosphate-buffered saline, Hyclone, USA) to remove surface-bound proteins, and internalized proteins were measured by flow cytometry (FlowJo cytometric analysis software, Guava, Millipore, Darmstadt, Germany). Untreated cells (gray) and equimolar concentration of unconjugated FITC (FITC only, green)-treated cells were served as control (FIG. 57).

B1: HM165S3B: His-tagged recombinant protein of aMTD165, human SOCS3 and solubilization domain B; prototype improved cell-permeable SOCS3 (protein)
chain: MGSSHHHHHHSSGLVPRGSHMALAVPVALAIVPVTHSKFPAAGMETSRPLDTSLRLKTFSSKSEYQLVVNAVRKLQESGFYWSAVTGGEANLLLSAEPAGTFLIRDSSDQRHFFTLSVKTQSGTKNLRIQCEGGSFSLQSDPRSTQPVPRFDCVLKLVHHYMETPPPGAPSFPSPPTEPSSEVPEQPSAQPLPGSPPRRAYYIYSGGEKIPLVLSRPLSSNVATLQHLCRKTVNGHLDSYEKVTQLPGPIREFLDQYDAPLGSMAEQSDKDVKYYTLEEIQKHKDSKSTWVILHHKVYDLTKFLEEHPGGEEVLGEQAGGDATENFEDVGHSTDARELSKTYIIGELHPDDRSKIAKPSETL
modifications: Amino acid sequence of HM165S3B
- induction of apoptosis (Annexin V) (AGS cells): showed high anticancer efficacy; also recorded: effects of inducing apoptosis
- induction of apoptosis (Annexin V) (AGS cells; listed as aMTD165-fused SOCS3 recombinant protein): induced death of the largest number of cancer cells
- effect on IL-6 secretion (IL-6): showed the greatest inhibitory effect on cytokine secretion
- expression of Bcl-2, HepG2 [1]: dramatically reduced
- expression of NF-κB (p-p65), HepG2 [1]: dramatically reduced
- level of cleaved caspase-3, HepG2 [1]: increased
- expression of Bcl-2, Hep3B [2]: dramatically reduced
- expression of NF-κB (p-p65), Hep3B [2]: dramatically reduced
- level of cleaved caspase-3, Hep3B [2]: increased
- effect on TNF-α secretion (TNF-α): showed the greatest inhibitory effect on cytokine secretion
- induction of cell death (TUNEL) (PANC-1 cells): induced death of the largest number of cancer cells
- induction of apoptosis (Annexin V), HepG2, dose dependence (HepG2 cells [3]): dose-dependently efficient inducer of apoptosis
- induction of apoptosis (Annexin V), HepG2, dose dependence (HepG2 cells [3]; listed as iCP-SOCS3): upon treatment of 10 uM or more of iCP-SOCS3, there was no difference in induction of apoptosis
- induction of apoptosis (Annexin V), HepG2 (HepG2 cells [3]; example 20-2): considerably efficient inducer of apoptosis
- cell cycle progression in normal cells (normal cells): did not inhibit cell cycle progression
- transduction into HepG2 cells (HepG2 cells [4]): promoted the transduction into cultured HCC HepG2 cells
